According to PMC6283879, “Structural assembly of the megadalton-sized receptor for intestinal vitamin B12 uptake and kidney protein reabsorption” (Nature Communications, 2018):

Legend:
[1] = flow cytometry, cubilin surface expression, CHO K1; settings: glycan lost; control: wild type AMN co-transfected with cubilin
[2] = target: the molecule itself; assay: crystal structure; AMN(20–357) and cubilin(26–135) co-expressed in E. coli and co-purified; crystals at 4 °C, sitting drop, 1.5 M magnesium sulphate, 0.1 M MES pH 5.5; 2.3 Å, SAD phasing

Row | Protein | localisation_or_trafficking [1] | stoichiometry N [2]
1 | amnionless (AMN): S37A (protein) parent chain: MGVLGRVLLWLQLCALTQAVSKLWVPNTDFDVAANWSQNRTPCAGGAVEFPADKMVSVLVQEGHAVSDMLLPLDGELVLASGAGFGVSDVGSHLDCGAGEPAVFRDSDRFSWHDPHLWRSGDEAPGLFFVDAERVPCRHDDVFFPPSASFRVGLGPGASPVRVRSISALGRTFTRDEDLAVFLASRAGRLRFHGPGALSVGPEDCADPSGCVCGNAEAQPWICAALLQPLGGRCPQAACHSALRPQGQCCDLCGAVVLLTHGPAFDLERYRARILDTFLGLPQYHGLQVAVSKVPRSSRLREADTEIQVVLVENGPETGGAGRLARALLADVAENGEALGVLEATMRESGAHVWGSSAAGLAGGVAAAVLLALLVLLVAPPLLRRAGRLRWRRHEAAAPAGAPLGFRNPVFDVTASEELPLPRRLSLVPKAAADSTSHSYFVNPLFAGAEAEA | no change | –
2 | amnionless (AMN): S37A/T41I (protein) parent chain: MGVLGRVLLWLQLCALTQAVSKLWVPNTDFDVAANWSQNRTPCAGGAVEFPADKMVSVLVQEGHAVSDMLLPLDGELVLASGAGFGVSDVGSHLDCGAGEPAVFRDSDRFSWHDPHLWRSGDEAPGLFFVDAERVPCRHDDVFFPPSASFRVGLGPGASPVRVRSISALGRTFTRDEDLAVFLASRAGRLRFHGPGALSVGPEDCADPSGCVCGNAEAQPWICAALLQPLGGRCPQAACHSALRPQGQCCDLCGAVVLLTHGPAFDLERYRARILDTFLGLPQYHGLQVAVSKVPRSSRLREADTEIQVVLVENGPETGGAGRLARALLADVAENGEALGVLEATMRESGAHVWGSSAAGLAGGVAAAVLLALLVLLVAPPLLRRAGRLRWRRHEAAAPAGAPLGFRNPVFDVTASEELPLPRRLSLVPKAAADSTSHSYFVNPLFAGAEAEA | no change | –
3 | N-terminal fragment of cubilin (residues 26–135) (domain or fragment, human, UniProt O60494 26-135, looked up, The methods name 'human' before AMN only ('human AMN ... and the N-terminal fragment of cubilin'); Cloned into the NdeI site of multiple cloning site 2 of pACYCDuet-1; also called trimeric cubilin; source: also in E. coli lysate / His-tag column eluate with the AMN T41I mutant) GELELQRQKRSINLQQPRMATERGNLVFLTGSAQNIEFRTGSLGKIKLNDEDLSECLHQIQKNKEDIIELKGSAIGLPQNISSQIYQLNSKLVDLERKFQGLQQTVDKKV | – | 3
